Where two headings read alike, the source gives them in different places.
System: peptide substrates
Format: biochemical

B1: VPr: Vibrio proteolyticus aminopeptidase (protein)
chain: MPPITQQATVTAWLPQVDASQITGTISSLESFTNRFYTTTSGAQASDWIASEWQALSASLPNASVKQVSHSGYNQKSVVMTITGSEAPDEWIVIGGHLDSTIGSHTNEQSVAPGADDDASGIAAVTEVIRVLSENNFQPKRSIAFMAYAAEEVGLRGSQDLANQYKSEGKNVVSALQLDMTNYKGSAQDVVFITDYTDSNFTQYLTQLMDEYLPSLTYGFDTCGYACSDHASWHNAGYPAAMPFESKFNDYNPRIHTTQDTLANSDPTGSHAKKFTQLGLAYAIEMGSATGDTPTPGNQ
- HPLC Assay Conv (substrate AAMAAM{LYSN3}NH2 (SEQ ID NO: 74), 1 mM peptide, 2 mM enzyme, 2.5 mM ZnCl2, 25 mM Tris pH 8.0, 30° C./1 hr): 100%
- HPLC Assay Conv (substrate AAPAAP{LYSN3}NH2 (SEQ ID NO: 98), 1 mM peptide, 2 mM enzyme, 2.5 mM ZnCl2, 25 mM Tris pH 8.0, 30° C./1 hr): 100%
- HPLC Assay Conv (substrate AAPFQQ (SEQ ID NO: 118), 1 mM Peptide, 1 μM enzyme, 10 mM Mg(OAc)2, 50 mM MOPS pH 8, 60 mM KOAc, RT/0.5 hr): 100%
- HPLC Assay Conv (substrate CCPFQQ (SEQ ID NO: 144), 1 mM Peptide, 1 μM enzyme, 10 mM Mg(OAc)2, 50 mM MOPS pH 8, 60 mM KOAc, RT/0.5 hr): 70%
- HPLC Assay Conv (substrate DDPFQQ (SEQ ID NO: 126), 1 mM Peptide, 1 uM enzyme, 10 mM Mg(OAc)2, 50 mM MOPS pH 8, 60 mM KOAc, RT/0.5 hr): 0%
- HPLC Assay Conv (substrate EEPFQQ (SEQ ID NO: 128), 1 mM Peptide, 1 uM enzyme, 10 mM Mg(OAc)2, 50 mM MOPS pH 8, 60 mM KOAc, RT/0.5 hr): 0%
- HPLC Assay Conv (substrate FFPFFP{LYSN3}NH2 (SEQ ID NO: 94), 1 mM peptide, 2 mM enzyme, 2.5 mM ZnCl2, 25 mM Tris pH 8.0, 30° C./1 hr): 100%
- HPLC Assay Conv (substrate FFPFQQ (SEQ ID NO: 124), 1 mM Peptide, 1 μM enzyme, 10 mM Mg(OAc)2, 50 mM MOPS pH 8, 60 mM KOAc, RT/0.5 hr): 100%
- HPLC Assay Conv (substrate GGPFQQ (SEQ ID NO: 152), 1 mM Peptide, 1 μM enzyme, 10 mM Mg(OAc)2, 50 mM MOPS pH 8, 60 mM KOAc, RT/0.5 hr): 8%
- HPLC Assay Conv (substrate HHPFQQ (SEQ ID NO: 154), 1 mM Peptide, 1 μM enzyme, 10 mM Mg(OAc)2, 50 mM MOPS pH 8, 60 mM KOAc, RT/0.5 hr): 12%
- HPLC Assay Conv (substrate IIPFQQ (SEQ ID NO: 136), 1 mM Peptide, 1 μM enzyme, 10 mM Mg(OAc)2, 50 mM MOPS pH 8, 60 mM KOAc, RT/0.5 hr): 100%
- HPLC Assay Conv (substrate KKMKKM{LYSN3}NH2 (SEQ ID NO: 89), 1 mM peptide, 2 mM enzyme, 2.5 mM ZnCl2, 25 mM Tris pH 8.0, 30° C./1 hr): 100%
- HPLC Assay Conv (substrate KKPFQQ (SEQ ID NO: 120), 1 mM Peptide, 1 μM enzyme, 10 mM Mg(OAc)2, 50 mM MOPS pH 8, 60 mM KOAc, RT/0.5 hr): 32%
- HPLC Assay Conv (substrate KKPKKP{LYSN3}NH2 (SEQ ID NO: 100), 1 mM peptide, 2 mM enzyme, 2.5 mM ZnCl2, 25 mM Tris pH 8.0, 30° C./1 hr): 100%
- HPLC Assay Conv (substrate LLPFQQ (SEQ ID NO: 138), 1 mM Peptide, 1 μM enzyme, 10 mM Mg(OAc)2, 50 mM MOPS pH 8, 60 mM KOAc, RT/0.5 hr): 100%
- HPLC Assay Conv (substrate MMPFQQ (SEQ ID NO: 148), 1 mM Peptide, 1 μM enzyme, 10 mM Mg(OAc)2, 50 mM MOPS pH 8, 60 mM KOAc, RT/0.5 hr): 100%
- HPLC Assay Conv (substrate NNPFQQ (SEQ ID NO: 130), 1 mM Peptide, 1 μM enzyme, 10 mM Mg(OAc)2, 50 mM MOPS pH 8, 60 mM KOAc, RT/0.5 hr): 15%
- HPLC Assay Conv (substrate PPPFQQ (SEQ ID NO: 150), 1 mM Peptide, 1 μM enzyme, 10 mM Mg(OAc)2, 50 mM MOPS pH 8, 60 mM KOAc, RT/0.5 hr): 0%
- HPLC Assay Conv (substrate QP5-Atto649N ([…]{LYSN3}NH2) (SEQ ID NO: 106), 37 μM Peptide, 8 μM Enzyme, 2.5 mM ZnCl2, 25 mM Tris pH 8.0, 37° C./0.5 hr): 100%
- HPLC Assay Conv (substrate QP15 […]{LYSN3}NH2 (SEQ ID NO: 107), 1200 μM Peptide, 0.008 μM enzyme, 10 mM Mg(OAc)2, 50 mM MOPS pH 5.5, RT/0.5 hr): 1.40%
- HPLC Assay Conv (substrate QP15 […]{LYSN3}NH2 (SEQ ID NO: 107), 1200 μM Peptide, 0.008 μM enzyme, 10 mM Mg(OAc)2, 50 mM MOPS pH 6.5, RT/0.5 hr): 56%
- HPLC Assay Conv (substrate QQPFQQ (SEQ ID NO: 132), 1 mM Peptide, 1 μM enzyme, 10 mM Mg(OAc)2, 50 mM MOPS pH 8, 60 mM KOAc, RT/0.5 hr): 66%
- HPLC Assay Conv (substrate RRPFQQ (SEQ ID NO: 116), 1 mM Peptide, 1 μM enzyme, 10 mM Mg(OAc)2, 50 mM MOPS pH 8, 60 mM KOAc, RT/0.5 hr): 79%
- HPLC Assay Conv (substrate RRPRRP{LYSN3}NH2 (SEQ ID NO: 96), 1 mM peptide, 2 mM enzyme, 2.5 mM ZnCl2, 25 mM Tris pH 8.0, 30° C./1 hr): 100%
- HPLC Assay Conv (substrate SSPFQQ (SEQ ID NO: 140), 1 mM Peptide, 1 μM enzyme, 10 mM Mg(OAc)2, 50 mM MOPS pH 8, 60 mM KOAc, RT/0.5 hr): 48%
- HPLC Assay Conv (substrate TTPFQQ (SEQ ID NO: 142), 1 mM Peptide, 1 μM enzyme, 10 mM Mg(OAc)2, 50 mM MOPS pH 8, 60 mM KOAc, RT/0.5 hr): 100%
- HPLC Assay Conv (substrate VVPFQQ (SEQ ID NO: 134), 1 mM Peptide, 1 μM enzyme, 10 mM Mg(OAc)2, 50 mM MOPS pH 8, 60 mM KOAc, RT/0.5 hr): 100%
- HPLC Assay Conv (substrate WWPFQQ (SEQ ID NO: 146), 1 mM Peptide, 1 μM enzyme, 10 mM Mg(OAc)2, 50 mM MOPS pH 8, 60 mM KOAc, RT/0.5 hr): 82%
- HPLC Assay Conv (substrate YYMYYM{LYSN3}NH2 (SEQ ID NO: 103), 1 mM peptide, 2 mM enzyme, 2.5 mM ZnCl2, 25 mM Tris pH 8.0, 30° C./1 hr): >90%
- HPLC Assay Conv (substrate YYPFQQ (SEQ ID NO: 122), 1 mM Peptide, 1 μM enzyme, 10 mM Mg(OAc)2, 50 mM MOPS pH 8, 60 mM KOAc, RT/0.5 hr): 56%
- HPLC Assay Conv (substrate YYPYYP{LYSN3}NH2 (SEQ ID NO: 92), 1 mM peptide, 2 mM enzyme, 2.5 mM ZnCl2, 25 mM Tris pH 8.0, 30° C./1 hr): 50%

Reference: patent publication US12618845B2, “Methods and compositions for protein sequencing” (Quantum-Si Incorporated, priority 2018, dated 2026)
